In US20190248900A1 (Y BIOLOGICS, published 2019):
Residue numbers refer to the chain shown, from its start.

B1: PD1-62E1 (antibody, V domains shown)
VH: QVQLVESGGDLVKPGRSLRLSCTGSGFTFGDHPLTWVRQIPGKGLEWVGFIRSKAYGETTEYAASVKGRFTISRDDSKSIAYLQMNSLRAEDTAVYYCASVSYCSGGSCYQGTFDYWGQGTLVTVSS
VL: DIQMTQSPAILSLSPGERATLSCRASQSVTSDVAWYQHIRGQAPRLLIYDASNRASGIPARFSGGGSGTEFTLTISSLEPEDFAVYYCQQYNNWPLTFGGGTKVEIK
B2: mPDL2-mFC (Fc fusion, mouse (prefix m on the sheet), UniProt Q9WUL5 20-221, looked up)
ligand fused to Fc: LFTVTAPKEVYTVDVGSSVSLECDFDRRECTELEGIRASLQKVENDTSLQSERATLLEEQLPLGKALFHIPSVQVRDSGQYRCLVICGAAWDYKYLTVKVKASYMRIDTRILEVPGTGEVQLTCQARGYPLAEVSWQNVSVPANTSHIRTPEGLYQVTSVLRLKPQPSRNFSCMFWNAHMKELTSAIIDPLSRMEPKVPRTW
notes: mFC fusion
B3: PD1-49A2(A/2B9) (antibody, V domains shown)
VH: QVQLVESGGGVVQPGRSLRLSCAASGFTFLRYAMHWVRQAPGKGLEWVAVISYDGRYKYYADSVKGRFTISRDNSKNTLYLQMNSLRAEDTAVYYCTTTTFDSWGQGTLVTVSS
VL: DIVMTQTPLSLPVTPGEAASISCRSSQSLLDSEDGNTYLDWYLQKPGQSPQLLIYTLSHRASGVPDRFSGSGSGTDFTLEISRVEAEDVGVYYCMQRRDFPFTFGQGTKVDIK
notes: scFv-phage in the screening ELISA; whole IgG in the other assays; also called 49A2-2B9; 49A2 (2B9)
B4: PD1-49A2(A/1H8) (antibody, V domains shown)
VH: B3 VH with L30K, R31T, R56Q, Y57H
VL: DIVMTQTPLSLPVTPGEPASISCRSSQSLLDRDGGHTYVDWYLQKPGQSPRLLIYTLSHRALGVPDRFSGSGSGTDFTLKISRVEADDVGLYYCMQRIEFPFTFGQGTKVEIK
notes: scFv-phage in the screening ELISA; whole IgG in the other assays; also called 49A2-1H8; PD1 49A2 1H8
B5: PD1-49A2(A/2A6) (antibody, V domains shown)
VH: B3 VH with L30K, R31Y, A49T, R56Q
VL: B3 VL with K45R, D66G, D76E, T78N, E80R, V91I, R98V, D99E, D111E
notes: scFv-phage in the screening ELISA; whole IgG in the other assays; also called 49A2-2A6; PD1 49A2 2A6
B6: PD1-45D6(A/5B2) (antibody, V domains shown)
VH: B3 VH with L30S, R31F, R56N, Y57D, T97V, T98P, D102E, S103Y
VL: B3 VL with L11P, A18P, E33D, V110L
notes: scFv-phage in the screening ELISA; whole IgG in the other assays; also called 45D6-5B2; PD1 45D6 5B2

Columns and labels:
[1] = target: T1, human PD-1 (NM_005018.2) over-expressed on cells (human, UniProt Q15116 25-288); experiment: cell-based or functional assay
[2] = target: T2, PD-1-His (S1352, Y-Biologics) (UniProt Q15116 25-170, limits assumed); experiment: competition ELISA: PD-L2-Fc coated, PD-1-His as binder, antibody as competitor
T2 construct: not shown: His tag
Procedure: (§1) Human PD-1-Fc (S1420, Y-Biologics) or PD-L2-Fc (#10292-H02H, Sino) was added to wells of a 96-well immuno microplate (#439454, Thermo) and then washed three times with PBS containing 0.05% tween-20 (#P9416, Sigma-Aldrich), followed by allowing to stand in a cleaning solution containing 4% skim milk (#232120, Becton, Dickinson and Company) at room temperature for 1 hour to block non-specific binding. […] After the resulting product was subjected to the same washing method as above, the anti-Biotin-His antibody (#MA1-21315-BTIN, Thermo) diluted to 1:2000 was added to the well of the microplate, allowed to react at room temperature for 1 hour, streptavidin poly-HRP antibody (#21140, Pierce) diluted to 1:5000 was added to the well of microplate, reacted at room temperature for 1 hour and then washed in the same manner. 100 ul of a TMB substrate solution (#T0440, Sigma-Aldrich) was added to the reaction product, light was shielded, and the reaction product was allowed to stand at room temperature for 3 minutes, 50 μL of 2.5 M sulfuric acid (#S1478, Samchun) was added to stop the reaction, and absorbance was measured at 450 nm using a spectrophotometer (*GM3000, Glomax® Discover System Promega).

PD1-hFc [3] = target: T3, PD1-hFc (human, UniProt Q15116 25-170); experiment: competition ELISA: PD1-Fc coated, PDL1-His as binder, antibody as competitor
T3 construct: extracellular domain; also called PD1-hFc protein; Human PD-1-Fc (S1420, Y-Biologics)
Procedure: as §1

ITGA6-Fc = target: T4, ITGA6-Fc; experiment: ELISA, 1 ug/ml
T4 construct: Fc fusion
T4 sequence (P23229 whole entry, species assumed, looked up): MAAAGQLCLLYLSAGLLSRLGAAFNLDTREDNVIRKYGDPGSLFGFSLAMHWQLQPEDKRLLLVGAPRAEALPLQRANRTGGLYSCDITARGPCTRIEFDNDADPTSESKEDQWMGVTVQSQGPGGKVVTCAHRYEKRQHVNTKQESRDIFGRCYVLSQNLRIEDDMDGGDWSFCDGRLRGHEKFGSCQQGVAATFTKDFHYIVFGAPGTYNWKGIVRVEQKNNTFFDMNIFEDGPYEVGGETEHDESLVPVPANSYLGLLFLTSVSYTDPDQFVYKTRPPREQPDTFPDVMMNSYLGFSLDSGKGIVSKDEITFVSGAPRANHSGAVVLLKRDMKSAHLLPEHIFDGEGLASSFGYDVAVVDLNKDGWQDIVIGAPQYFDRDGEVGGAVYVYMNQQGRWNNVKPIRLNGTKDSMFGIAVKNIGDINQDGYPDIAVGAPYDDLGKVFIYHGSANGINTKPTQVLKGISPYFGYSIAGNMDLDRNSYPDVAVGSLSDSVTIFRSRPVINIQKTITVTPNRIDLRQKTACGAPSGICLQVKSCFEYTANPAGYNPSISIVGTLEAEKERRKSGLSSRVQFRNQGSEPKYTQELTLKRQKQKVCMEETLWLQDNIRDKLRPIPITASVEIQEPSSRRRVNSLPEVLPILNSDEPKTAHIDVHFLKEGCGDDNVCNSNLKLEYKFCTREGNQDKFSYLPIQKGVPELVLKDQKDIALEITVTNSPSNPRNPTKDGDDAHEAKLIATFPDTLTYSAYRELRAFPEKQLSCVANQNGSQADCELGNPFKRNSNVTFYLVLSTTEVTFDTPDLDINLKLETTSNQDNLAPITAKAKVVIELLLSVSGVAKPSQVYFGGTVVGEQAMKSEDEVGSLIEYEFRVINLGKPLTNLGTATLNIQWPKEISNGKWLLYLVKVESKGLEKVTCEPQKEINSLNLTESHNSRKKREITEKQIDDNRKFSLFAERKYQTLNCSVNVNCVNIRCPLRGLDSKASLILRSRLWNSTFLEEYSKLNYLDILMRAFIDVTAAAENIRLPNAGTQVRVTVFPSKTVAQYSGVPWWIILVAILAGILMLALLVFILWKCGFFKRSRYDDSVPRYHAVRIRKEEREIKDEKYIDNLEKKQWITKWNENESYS

M11 = target: T5, M11; experiment: ELISA, 1 ug/ml
T5 construct: also called PD1 mutant M11

M7 = target: T6, M7; experiment: ELISA, 1 ug/ml
T6 construct: also called PD1 mutant M7

[4] = target: T1, human PD-1 (NM_005018.2) over-expressed …; experiment: flow cytometry on cells over-expressing human PD-1, fit of Geometric Mean
PD1-hFc [5] = target: T3, PD1-hFc; experiment: ProteOn XPR36; legend names PD1-hFc, the sheet names the immobilised protein PD-1 C-his
monkey PD1 protein = target: T7, monkey PD1 protein (monkey); experiment: SPR ProteOn XPR36; format for monkey PD1 not described
T7 construct: also called monkey PD-1 proteins

PD1-hFc [6] = target: T3, PD1-hFc; experiment: SPR ProteOn XPR36, PD1-hFc immobilised, antibody as analyte
Procedure: A ProteOn XPR36 (BioRad) instrument was used. The GLC sensor chip (BioRad) was mounted on the instrument and washed with PBST buffer, and the carboxymethyldextran surface was activated with an EDC/sulfo-NHS mixed solution. PD1-hFc dissolved at a concentration of 5 ug/ml in a 10 mM sodium acetate buffer solution (pH 5.0) was injected and immobilized on the GLC sensor chip.
In order to deactivate the activated carboxyl groups that remain unreacted with the PD1 protein, 1 M ethanolamine was flowed and 10 mM glycine (pH 2.0) was injected in order to wash proteins that remain unbound to the sensor chip.
The equilibrium dissociation constant (KD) was calculated by plotting and fitting the sensogram data in the equilibrium state depending on concentration.

rat PD1 protein = target: T8, rat PD1 protein (rat, UniProt D3ZIN8 25-169); experiment: SPR ProteOn XPR36; format for rat PD1 not described
T8 construct: also called rat PD-1 proteins
T8 sequence: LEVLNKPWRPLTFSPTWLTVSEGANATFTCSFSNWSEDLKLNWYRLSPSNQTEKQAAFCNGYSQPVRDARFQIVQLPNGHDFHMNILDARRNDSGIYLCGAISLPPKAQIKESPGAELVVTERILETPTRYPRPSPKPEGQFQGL

[7] = target: T1, human PD-1 (NM_005018.2) over-expressed …; experiment: cell-based or functional assay; remark: listed apart in the source

| Binder | EC50 [nM], PD1/PD-L1 blockade bioassay [1] [nM] | IC50 [2] [nM] | IC50 (PD1-hFc [3]) [nM] | OD490 (ITGA6-Fc) | OD490 (M11) | OD490 (M7) | Bmax [4] | Kd [4] [nM] | Kd (PD1-hFc [5]) [nM] | koff (PD1-hFc [5]) [s⁻¹] | Kd (monkey PD1 protein) [nM] | koff (monkey PD1 protein) [s⁻¹] | kon (monkey PD1 protein) [M⁻¹ s⁻¹] | kon (PD1-hFc [6]) [M⁻¹ s⁻¹] | Kd (rat PD1 protein) [nM] | koff (rat PD1 protein) [s⁻¹] | kon (rat PD1 protein) [M⁻¹ s⁻¹] | EC50 [7] [nM] | Kd (PD1-hFc [6]) [nM] | koff (PD1-hFc [6]) [s⁻¹] |
| --- | --- | --- | --- | --- | --- | --- | --- | --- | --- | --- | --- | --- | --- | --- | --- | --- | --- | --- | --- | --- |
| B1 | 2.73 | 314 | 2.89 |  |  |  |  |  |  |  |  |  |  |  |  |  |  |  |  |  |
| B2 |  |  |  | 0.3 | 1.7 |  |  |  |  |  |  |  |  |  |  |  |  |  |  |  |
| B3 | 1.23 | 59 | 6.38 | 0.1 | 0.433 | 0.083 | 2900 | 6.2 | < 0.001 | < 1e-07 | 0.001 | 1e-07 | 185000 | 377000 | 4.23 | 0.000625 | 148000 | 0.689 |  |  |
| B4 | 1.21 |  |  |  |  |  |  |  |  |  |  |  |  | 220000 |  |  |  | 1.45 | 0.0124 | 2.74e-06 |
| B5 | 1.51 |  |  |  |  |  |  |  |  |  |  |  |  | 310000 |  |  |  | 1.67 | 0.0691 | 2.14e-05 |
| B6 | 1.48 | 75.4 | 3.09 | 0.124 | 0.446 | 0.238 |  |  |  |  |  |  | 208000 | 332000 | 4.59 | 0.000863 | 188000 | 1.66 | 0.0582 | 1.93e-05 |
